{
  "source": "paper PMC3664427",
  "about": "(Circulation research, 2011)",
  "binders": {"B1": {"name": "telethonin (natural protein, human, UniProt O15273 1-167, looked up)", "chain": "MATSELSCEVSEENCERREAFWAEWKDLTLSTRPEEGCSLHEEDTQRHETYHQQGQCQVLVQRSPWLMMRMGILGRGLQEYQLPYQRVLPLPIFTPAKMGATKEEREDTPIQLQELLALETALGGQCVDRQEVAEITKQLPPVVPVSKPGALRRSLSRSMSQEAQRG"}},
  "key": {"p53 DNA binding domain": {"target": "p53 DNA binding domain (UniProt P04637 94-312)", "sequence (P04637 94-312)": "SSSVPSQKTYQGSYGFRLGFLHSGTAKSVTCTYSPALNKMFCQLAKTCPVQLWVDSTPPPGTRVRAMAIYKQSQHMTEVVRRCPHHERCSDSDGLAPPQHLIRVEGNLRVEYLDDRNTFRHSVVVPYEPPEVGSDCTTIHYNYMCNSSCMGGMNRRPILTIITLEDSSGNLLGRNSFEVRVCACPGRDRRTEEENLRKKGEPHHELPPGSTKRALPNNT", "assay": "SPR"}, "[1]": {"target": "fluorescein-labelled p53DBD (UniProt P04637 94-312, fluorescein label (site not stated))", "sequence (P04637 94-312)": "as above", "assay": "fluorescence polarisation"}},
  "data": [
    {"binder": "B1", "values": [
      {"measurement": "Kd", "setting": "p53 DNA binding domain", "result": "765 ± 30", "unit": "nM"},
      {"measurement": "Kd", "setting": "[1]", "result": 2200, "unit": "nM"}
    ]}
  ]
}
